Results as given in PMC6891901.

System: T1, KH9-OEP34 (CTP) (synthetic)
T1 sequence: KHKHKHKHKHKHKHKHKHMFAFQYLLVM
Assay: free peptide quantification
Conditions: in water; N/P 0.5-5.0; value stated as up to 64%; pDNA/CTP complexes formed in water, N/P 0.1-25, agarose gel EMSA; pH, salt and temperature not given in the material

pPpsbA::Rluc
binding signal (% of CTP bound (maximum)): 64
